Entries after “also recorded” stand apart in the source; their conditions may differ. Each block holds one compound with its values, some of them ahead of it. Where no end group is shown, it is not given here.
Tests used:
thrombin = thrombin (Homo sapiens, UniProt P00734); conditions: cited from earlier work
[1] = target: T1, Ribonuclease S (S-protein) (Bos taurus, UniProt P61823); experiment: RNase S activity assay: increase in acid soluble nucleotides (A280) during hydrolysis of poly-(C), with or without 1 GHz RFMF; format: biochemical
T1 construct: incubated with the rest of the Ribonuclease S complex, the S-protein; purchased Novagen, Madison, Wis
T1 sequence (P61823 47-150 limits assumed): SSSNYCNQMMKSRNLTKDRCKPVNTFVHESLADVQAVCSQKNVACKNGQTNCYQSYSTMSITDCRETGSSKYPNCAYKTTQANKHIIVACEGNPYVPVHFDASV

[2] = target: T1, Ribonuclease S (S-protein); experiment: as above; format: biochemical; conditions: for RNase S activity (digested polyC, A280) with the RFMF on compared with RFMF off: 37° C., as a function of reaction time
Method: In this example, ribonuclease S was associated with a gold nanocrystal modulator (the system described in Example 1). The activity of the enzyme was controlled by induction heating of the modulator using an alternating magnetic field. The frequency of the alternating magnetic field was 1 GHz in the radiofrequency range. Accordingly, the alternating magnetic field is referred to as a radiofrequency magnetic field (RFMF). The modulator S-peptide and S-protein complex was incubated with the substrate, polyC, in solution at 37° C. The tube containing the sample was placed in a coil inside which the RFMF was generated and switched on. Activity was monitored by measuring the amount of digested polyC in the solution. PolyC was purified from the rest of the sample by precipitation with trichloroacetic acid (TCA). The activity was the amount of digested polyC, which is determined by the optical absorption of the sample at 280 nm.
The assay for measuring RNase activity was based on the measurement of increase in acid soluble nucleotides during the hydrolysis of poly-(C) (FIG. 14(a)). All concentrations were expressed as the final concentrations in the assay system. The S-protein (Novagen, Madison, Wis.) with various concentrations of S18 peptide was pre-incubated in 20 mM Na-phosphate buffer, pH 6.0; 100 mM NaCl at 37° C. for 10 minutes followed by initiating the reaction by the addition of the substrate, 0.39 mM poly [C] (sigma). At different time intervals, aliquots were quenched with 5% trichloroacetic acid (TCA). The reaction mixture was kept on ice for 5 minutes and subsequently spun at 13,000 rpm (Biofuge A) for 10 min.
Alternating magnetic fields are generated by applying an electric current to a copper coil that coils around a quartz cuvette. Currents with frequencies in the radio frequency range are obtained by using a RF generator with a current amplifier. The RF is pulsed at 15 second intervals. The RF power levels are varied from −8 dBm to −0.1 dBm. The MF frequency used is 1 GHz.

Compound: NC(N)=NCCC[C@H](NC(=O)[C@@H]1CCCN1C(=O)[C@H](N)Cc1ccccc1)C(=O)CCl [PPACK, D-Phe-L-Pro-L-Arg-chloromenthy ketone]
Inhibition of thrombin activity (thrombin): inhibitory effect

RF power at the 50% activity ([2]; 1 GHz RFMF): −4 dBm
Effect of higher RF levels on RNase S activity ([2]; RF −4, −3, −2 to −1 dBm, 1 GHz): drastic effect
Effect of low RF levels on RNase S activity ([2]; RF −8 to −5 dBm, 1 GHz): no significant effect
Activity once recovered after RF ([2]; after recovery time): fully active
RNase S activity (digested polyC, A280) with the RFMF on compared with RFMF off ([2]; modulator linked to S-peptide, RFMF 1 GHz, listed as Au-S18/S peptide): reduced
RNase S activity (digested polyC, A280) with the RFMF on compared with RFMF off ([2]; modulator linked to S-peptide, RFMF 1 GHz, listed as gold nanoparticle linked S-peptide): transiently halting the enzyme activity
RNase S activity (digested polyC, A280) with the RFMF on compared with RFMF off ([2]; modulator linked to S-peptide, RFMF 1 GHz, listed as modulator S-peptide-S-protein complex): less than with the RFMF off
Compound: Au-S18: S18 peptide covalently linked via N-terminal cysteine to a single 1.4 nm gold nanocrystal; tested complexed with S-protein (CGGKETAAAKFERQHMDS; also: linked via N-terminal cysteine to a 1.4 nm gold nanocrystal)
Enzymatic activity when combined with S-protein, no RF (RF OFF state) ([1]; listed as gold nanoparticle linked S-peptide): indistinguishable from the S-peptide without the nanoparticles
Enzymatic activity when combined with S-protein, no RF (RF OFF state) [2]: active
RNase S activity with the RFMF on compared with RFMF off as a function of modulator-S-peptide concentration ([2]; modulator linked to S-peptide, RFMF 1 GHz, entire concentration range): significantly less than with the RFMF off

Compound: CGAGAG-AETEYDSLYPEDDL (CGAGAGAETEYDSLYPEDDL; thrombin inhibitory peptide: fibrin 414-27) [414-427, fibrin gamma chain fragment peptide]
Inhibition of thrombin activity (thrombin): strongly inhibit

Compound: CGAGAG-NGDFEEIPEEYL (CGAGAGNGDFEEIPEEYL; thrombin inhibitory peptide: hirudin 53-64) [hirugen53-64, fragment of Hirudin]
Affinity for thrombin (thrombin): very high affinity

Compound: CGAGAG-VRPEHPAETEYDSLYPEDDL (CGAGAGVRPEHPAETEYDSLYPEDDL; thrombin inhibitory peptide: fibrin 408-27) [408-427, fibrin gamma chain fragment peptide]
Inhibition of thrombin activity (thrombin): strongly inhibit

Compound: Hirudin
Affinity for thrombin (thrombin): extremely high affinity
Inhibition of thrombin activity (thrombin): inhibits the enzymatic cleavage of fibrinogen by thrombin

Enzymatic activity when combined with S-protein, no RF (RF OFF state) [2]: full enzymatic activity
Compound: S15: residues 1 to 15 of the wild type S-peptide of ribonuclease S (KETAAAKFERQHMDS) [reference compound]
Enzymatic activity when combined with S-protein, no RF (RF OFF state) ([1]; listed as S-peptide with only the N-terminal 15 residues): completely restored the enzymatic activity

Compound: n-CGGKETAAAKFERQHMDS-c (S18 peptide)
Enzymatic activity when combined with S-protein, no RF (RF OFF state) [2]: restored the RNase S enzyme activity; also recorded: indistinguishable from that of the S15 native peptide

— patent US6953656B2, “Direct, externally imposed control of polypeptides” (Massachusetts Institute of Technology, priority 2000, dated 2005)
